Publication PMC13627713

Target: Smc5/6 hexamer (wild type) (Saccharomyces cerevisiae W303, UniProt Q08204;Q12749;Q07913;P38632;Q05541;P43124 1-1093;1-1114;1-336;1-267;1-303;1-402)
Assay: EMSA

B1: DB20 20-bp DNA (dsDNA)
DNA 1: TATTTACTTTATGTTCATTT
DNA 2: AAATGAACATAAAGTAAATA
- binding result: binds
